# Assay results as given in paper PMC6215540, “Kinetic characterization of acetone monooxygenase from Gordonia sp. strain TY-5” (AMB Express, 2018).
# Residue numbers refer to the chain shown, from its start. Names and notes keep the numbering of the source.
# B1: ACMO (Gordonia sp. TY-5) (protein)
# chain: MSTTTLDAAVIGTGVAGLYELHMLREQGLEVRAYDKASGVGGTWYWNRYPGARFDSEAYIYQYLFDEDLYKGWSWSQRFPGQEEIERWLNYVADSLDLRRDISLETEITSAVFDEDRNRWTLTTADGDTIDAQFLITCCGMLSAPMKDLFPGQSDFGGQLVHTARWPKEGIDFAGKRVGVIGNGATGIQVIQSIAADVDELKVFIRTPQYALPMKNPSYGPDEVAWYKSRFGELKDTLPHTFTGFEYDFTDAWEDLTPEQRRARLEDDYENGSLKLWLASFAEIFSDEQVSEEVSEFVREKMRARLVDPELCDLLIPSDYGFGTHRVPLETNYLEVYHRDNVTAVLVRDNPITRIRENGIELADGTVHELDVIIMATGFDAGTGALTRIDIRGRDGRTLADDWSRDIRTTMGLMVHGYPNMLTTAVPLAPSAALCNMTTCLQQQTEWISEAIRHLRATGKTVIEPTAEGEEAWVAHHDELADANLISKTNSWYVGSNVPGKPRRVLSYVGGVGAYRDATLEAAAAGYKGFALS
# notes: full-length, codon-optimised gene in pGEX4T1, E. coli DH5alpha; N-terminal GST removed with thrombin; calculated mass 59,780 Da
# B2: GSTACMO (Gordonia sp. TY-5) (protein)
# chain: B1 chain
# notes: full-length with N-terminal GST tag kept (pGEX4T1), E. coli DH5alpha
# B3: ACMO (Gordonia sp. TY-5; H325K) (protein)
# chain: B1 chain with H325K
# notes: as for B1
# How the values were obtained:
# ACMO [1] = biological target: T1, ACMO (Gordonia sp. TY-5, UniProt A1IHE6); assay: NADPH oxidation at […] nm, competitive inhibition fit; format: biochemical; conditions: read-out: Measured values
# T1 construct: gene acmA; full-length, codon-optimised gene in pGEX4T1, E. coli DH5alpha; N-terminal GST removed with thrombin; calculated mass 59,780 Da
# ACMO [2] = biological target: T2, ACMO (Gordonia sp. TY-5, UniProt A1IHE6, H325K); assay: as above; format: biochemical; conditions: read-out: Measured values
# T2 construct: gene acmA; full-length, codon-optimised gene in pGEX4T1, E. coli DH5alpha; N-terminal GST removed with thrombin; calculated mass 59,780 Da
# T2 sequence (A1IHE6 whole entry H325K): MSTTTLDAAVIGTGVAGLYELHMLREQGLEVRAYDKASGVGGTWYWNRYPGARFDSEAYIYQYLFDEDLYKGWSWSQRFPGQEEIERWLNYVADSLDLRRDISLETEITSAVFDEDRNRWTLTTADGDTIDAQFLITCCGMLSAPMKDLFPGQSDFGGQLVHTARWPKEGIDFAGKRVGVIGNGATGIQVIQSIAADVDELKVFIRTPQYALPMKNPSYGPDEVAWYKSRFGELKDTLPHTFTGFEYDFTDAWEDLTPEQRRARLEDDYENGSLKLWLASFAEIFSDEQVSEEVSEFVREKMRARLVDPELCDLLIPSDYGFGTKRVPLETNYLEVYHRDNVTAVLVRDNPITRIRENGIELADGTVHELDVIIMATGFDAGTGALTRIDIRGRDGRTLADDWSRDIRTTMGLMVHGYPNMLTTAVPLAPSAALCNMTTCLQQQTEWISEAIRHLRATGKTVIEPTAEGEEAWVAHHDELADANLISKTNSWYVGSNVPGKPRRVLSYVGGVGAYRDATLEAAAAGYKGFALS
# GSTACMO [3] = biological target: T3, GSTACMO (Gordonia sp. TY-5, UniProt A1IHE6, H325K); assay: flavin absorbance titration at […] nm, quadratic fit; format: binding
# T3 construct: gene acmA; full-length with N-terminal GST tag kept (pGEX4T1), E. coli DH5alpha
# T3 sequence (A1IHE6 whole entry H325K): as above
# GSTACMO [4] = biological target: T4, GSTACMO (Gordonia sp. TY-5, UniProt A1IHE6); assay: flavin absorbance titration at […] nm, quadratic fit; format: binding
# T4 construct: gene acmA; full-length with N-terminal GST tag kept (pGEX4T1), E. coli DH5alpha
# CC(=O)Cc1ccccc1 = assay: purified protein; format: biochemical, Gordonia sp. TY-5; conditions: 100 µM NADPH, air-saturated 50 mM HEPES pH 7.5, 25 °C
# GSTACMO [5] = biological target: T4, GSTACMO; assay: stopped-flow flavin reduction at […] nm, hyperbolic fit of kobs; format: biochemical; conditions: 50 mM HEPES pH 7.5, 20% glycerol, 25 °C, anaerobic; oxidized enzyme; text b56 prints 121; table labels it ACMO, done on GSTACMO; read-out: Measured values
# purified protein [6] = substrate: CC(C)=O; assay: purified protein; format: biochemical, Gordonia sp. TY-5; conditions: 100 µM NADPH, air-saturated 50 mM HEPES pH 7.5, 25 °C
# purified protein [7] = substrate: O=C1CCCC1; assay: purified protein; format: biochemical, Gordonia sp. TY-5; conditions: 100 µM NADPH, air-saturated 50 mM HEPES pH 7.5, 25 °C
# purified protein [8] = substrate: O=C1CCC1; assay: purified protein; format: biochemical, Gordonia sp. TY-5; conditions: 100 µM NADPH, air-saturated 50 mM HEPES pH 7.5, 25 °C
# purified protein [9] = substrate: CC(=O)C(C)C; assay: purified protein; format: biochemical, Gordonia sp. TY-5; conditions: 100 µM NADPH, air-saturated 50 mM HEPES pH 7.5, 25 °C
# purified protein [10] = substrate: CC(C)C(=O)C(C)C; assay: purified protein; format: biochemical, Gordonia sp. TY-5; conditions: 100 µM NADPH, air-saturated 50 mM HEPES pH 7.5, 25 °C
# purified protein [11] = substrate: CCCCCC(C)=O; assay: purified protein; format: biochemical, Gordonia sp. TY-5; conditions: 100 µM NADPH, air-saturated 50 mM HEPES pH 7.5, 25 °C
# purified protein [12] = substrate: O=C1CC2C=CCC12; assay: purified protein; format: biochemical, Gordonia sp. TY-5; conditions: 100 µM NADPH, air-saturated 50 mM HEPES pH 7.5, 25 °C
# purified protein [13] = substrate: NC(=O)C1=CN([C@@H]2O[C@H](COP(=O)(O)OP(=O)(O)OC[C@H]3O[C@@H](n4cnc5c(N)ncnc54)[C@H](OP(=O)(O)O)[C@@H]3O)[C@@H](O)[C@H]2O)C=CC1; assay: purified protein; format: biochemical, Gordonia sp. TY-5; conditions: 200 μM butanone
# purified protein [14] = substrate: CCC(C)=O; assay: purified protein; format: biochemical, Gordonia sp. TY-5; conditions: 100 µM NADPH
# purified protein [15] = substrate: CCCC(C)=O; assay: purified protein; format: biochemical, Gordonia sp. TY-5; conditions: 100 µM NADPH, air-saturated 50 mM HEPES pH 7.5, 25 °C
# purified protein [16] = substrate: O=C1CCCCC1; assay: purified protein; format: biochemical, Gordonia sp. TY-5; conditions: 100 µM NADPH, air-saturated 50 mM HEPES pH 7.5, 25 °C
# [17] = air-saturated 50 mM HEPES pH 7.5, 25 °C
# [18] = 50 mM HEPES pH 7.5, 25 °C, GST tag state not told, table row identical to the butanone row, possible duplication
# [19] = 50 mM HEPES pH 7.5, 25 °C, GST tag state not told, table row identical to the NADPH row, possible duplication
molecule,measurement,setting,value
NC(=O)c1ccc[n+]([C@@H]2O[C@H](COP(=O)(O)OP(=O)(O)OC[C@H]3O[C@@H](n4cnc5c(N)ncnc54)[C@H](OP(=O)(O)O)[C@@H]3O)[C@@H](O)[C@H]2O)c1 [NADP^+],Ki,ACMO [1],166 ± 13 µM
same,Ki,ACMO [2],27 ± 6 µM
same,Kd,GSTACMO [3],0.5 ± 0.04 µM
same,Kd,GSTACMO [4],21.1 ± 4.1 µM
ACMO (Gordonia sp. TY-5),Km,CC(=O)Cc1ccccc1,8.9 ± 1.5 µM
same,kcat,CC(=O)Cc1ccccc1,1 ± 0.1 s⁻¹
same,kcat/Km,CC(=O)Cc1ccccc1,112000 ± 20000 M⁻¹ s⁻¹
NC(=O)C1=CN([C@@H]2O[C@H](COP(=O)(O)OP(=O)(O)OC[C@H]3O[C@@H](n4cnc5c(N)ncnc54)[C@H](OP(=O)(O)O)[C@@H]3O)[C@@H](O)[C@H]2O)C=CC1 [NADPH],Kd,GSTACMO [5],120 ± 14 µM
B1,Km,purified protein [6],170 ± 11 µM
same,kcat,purified protein [6],1.4 ± 0.2 s⁻¹
same,kcat/Km,purified protein [6],8500 ± 590 M⁻¹ s⁻¹
same,Km,purified protein [7],120 ± 11 µM
same,kcat,purified protein [7],4.3 ± 0.1 s⁻¹
same,kcat/Km,purified protein [7],35000 ± 3200 M⁻¹ s⁻¹
same,Km,purified protein [8],1.5 ± 0.2 µM
same,kcat,purified protein [8],2 ± 0.1 s⁻¹
same,kcat/Km,purified protein [8],1.4e+06 ± 190000 M⁻¹ s⁻¹
same,Km,purified protein [9],4.4 ± 0.5 µM
same,kcat,purified protein [9],2.2 ± 0.1 s⁻¹
same,kcat/Km,purified protein [9],510000 ± 55000 M⁻¹ s⁻¹
same,Km,purified protein [10],1500 ± 220 µM
same,kcat,purified protein [10],1.5 ± 0.1 s⁻¹
same,kcat/Km,purified protein [10],1000 ± 150 M⁻¹ s⁻¹
same,Km,purified protein [11],1.5 ± 0.1 µM
same,kcat,purified protein [11],3.9 ± 0.1 s⁻¹
same,kcat/Km,purified protein [11],2.6e+06 ± 130000 M⁻¹ s⁻¹
same,Km,purified protein [12],6.7 ± 1.3 µM
same,kcat,purified protein [12],1.5 ± 0.1 s⁻¹
same,kcat/Km,purified protein [12],220000 ± 45000 M⁻¹ s⁻¹
same,Km,purified protein [13]; [17],6.7 ± 0.8 µM
same,kcat,purified protein [13]; [17],2 ± 0.1 s⁻¹
same,kcat/Km,purified protein [13]; [17],300000 ± 36000 M⁻¹ s⁻¹
same,Km,purified protein [14]; [17],0.34 ± 0.03 µM
same,kcat,purified protein [14]; [17],2.1 ± 0.1 s⁻¹
same,kcat/Km,purified protein [14]; [17],6e+06 ± 550000 M⁻¹ s⁻¹
same,Km,purified protein [15],0.37 ± 0.06 µM
same,kcat,purified protein [15],1.9 ± 0.1 s⁻¹
same,kcat/Km,purified protein [15],4.8e+06 ± 760000 M⁻¹ s⁻¹
same,Km,purified protein [16],2400 ± 400 µM
same,kcat,purified protein [16],3.6 ± 0.2 s⁻¹
same,kcat/Km,purified protein [16],1500 ± 300 M⁻¹ s⁻¹
B2,Km,purified protein [16],2300 ± 380 µM
same,kcat,purified protein [16],2.8 ± 0.1 s⁻¹
same,kcat/Km,purified protein [16],1200 ± 200 M⁻¹ s⁻¹
B3,Km,purified protein [13]; [18],0.48 ± 0.05 µM
same,kcat,purified protein [13]; [18],1.6 ± 0.1 s⁻¹
same,kcat/Km,purified protein [13]; [18],3.25e+06 ± 320000 M⁻¹ s⁻¹
same,Km,purified protein [14]; [19],0.48 ± 0.05 µM
same,kcat,purified protein [14]; [19],1.6 ± 0.1 s⁻¹
same,kcat/Km,purified protein [14]; [19],3.25e+06 ± 320000 M⁻¹ s⁻¹
